Source: EP4736886A1, “METHOD FOR PREPARING ANTIBODY-SMALL MOLECULE DRUG CONJUGATE AND USE THEREOF” (priority 2023, dated 2025)
Substitutions are numbered along the chain they refer to.

B1: Mutant 37-DXd (conjugate)
heavy: QVQLVESGGGLVQPGGSLRLSCAASGITFPVNAYGWYRQAPGKQRDLVAIISAGGTTNYADSVKGRFTISRDNSKNTLYLQMNSLRAEDTAVYYCYLQRRIGMLRDYWGQGTQVTVSSERKCDDCVECPPCPERKCCVECPPCPAPPVAGPSVFLFPPKPKDTLMISRTPEVTCVVVDVSHEDPEVQFNWYVDGVEVHNAKTKPREEQFNSTFRVVSVLTVVHQDWLNGKEYKCKVSNKGLPAPIEKTISKTKGQPREPQVYTLPPSREEMTKNQVSLTCLVKGFYPSDIAVEWESNGQPENNYKTTPPMLDSDGSFFLYSKLTVDKSRWQQGNVFSCSVMHEALHNHYTQKSLSLSPGK
B2: Mutant 38-DXd (conjugate)
heavy: B1 heavy with D123E, D124E

How the values were obtained:
[1] = system: OVCAR-3 cells; assay: Cell killing assay, cell viability by CellTiter-Glo; assay type: cell-based, human; conditions: 5 days at 37°C; compared to Antibody 1-DXd, FIG. 11
Protocol: OVCAR-3 cells were seeded into a 96-well plate at a density of 5,000 cells per well and cultured overnight at 37°C. Antibody 1-DXd, Mutant 22-DXd, Mutant 23-DXd, Mutant 37-DXd, Mutant 38-DXd, Mutant 39-DXd, and Mutant 40-DXd were serially diluted and added to the 96-well plate containing OVCAR-3 cells, followed by incubation at 37°C for 5 days. Cell viability was measured using CellTiter-Glo (Promega) to evaluate the killing effects of the antibody-drug conjugates.

[2] = Size-exclusion chromatography analysis of aggregate formation; assay type: physicochemical; conditions: DXd conjugates, FIG. 7 and FIG. 9
Protocol: Size-exclusion chromatography analysis was performed. […]
Based on Antibody 3 and Antibody 4, amino acid residues with different properties were inserted between the cysteine residues at positions 4 and 5. Specifically: nonpolar amino acids, exemplified by the insertion of two alanine residues (A); polar uncharged amino acids, exemplified by the insertion of two serine residues (S); basic amino acids, exemplified by the insertion of two lysine residues (K); and acidic amino acids, exemplified by the insertion of two glutamic acid residues (E) or two aspartic acid residues (D), as shown in Table 5. The different mutants were expressed and purified. […]
The different mutants listed in Table 6 were expressed and purified. […] The thermal stability of these ten heavy-chain antibodies was further evaluated using dynamic light scattering (DLS). A DLS (Wyatt) instrument was used to monitor light scattering of the antibodies during heating from 25 °C to 85 °C, thereby determining the aggregation temperature (Tagg) of the antibodies.
VHH1 was separately linked to the engineered human IgG2 Fc or the engineered human IgG4 Fc shown in Table 7 to construct heavy-chain antibodies. After expression and purification, Mutant 37, Mutant 38, Mutant 39, and Mutant 40 were obtained.

[3] = Hydrophobic interaction chromatography and LC-MS analysis of drug loading; assay type: physicochemical; conditions: after TCEP reduction and conjugation with maleimide-GGFG-DXd
Protocol: Antibody 1 and Antibody 2 were separately incubated with TCEP (Sigma) to reduce and open the disulfide bonds between the two heavy chains, followed by the addition of maleimide-GGFG-DXd (MedChemExpress) for conjugation. The conjugates were then purified using a desalting column to remove excess small-molecule drug.

| Molecule | killing effect on OVCAR-3 cells [1] | size-exclusion chromatography peak profile after conjugation [2] | drug-to-antibody ratio (DAR) value [3] |
| --- | --- | --- | --- |
| B1 | significantly enhanced killing effect | normal | 8 |
| B2 | significantly enhanced killing effect | normal | 8 |
